# Assay results as given in publication PMC11544177 (Acta Pharmaceutica Sinica. B, 2024).
# B1: ACAT1, endogenous in A375 human melanoma cells (enzyme, human (endogenous in A375), UniProt P24752 34-427, looked up)
# chain: VSKPTLKEVVIVSATRTPIGSFLGSLSLLPATKLGSIAIQGAIEKAGIPKEEVKEAYMGNVLQGGEGQAPTRQAVLGAGLPISTPCTTINKVCASGMKAIMMASQSLMCGHQDVMVAGGMESMSNVPYVMNRGSTPYGGVKLEDLIVKDGLTDVYNKIHMGSCAENTAKKLNIARNEQDAYAINSYTRSKAAWEAGKFGNEVIPVTVTVKGQPDVVVKEDEEYKRVDFSKVPKLKTVFQKENGTVTAANASTLNDGAAALVLMTADAAKRLNVTPLARIVAFADAAVEPIDFPIAPVYAASMVLKDVGLKKEDIAMWEVNEAFSLVVLANIKMLEIDPQKVNINGGAVSLGHPIGMSGARIVGHLTHALKQGEYGLASICNGGGGASAMLIQKL
# Tests used:
# [1] = target: T1, mitochondrial acetyl-CoA acetyltransferase 1 (ACAT1) (Homo sapiens, UniProt P24752); test: SPR; format: binding
# T1 sequence (P24752 34-427): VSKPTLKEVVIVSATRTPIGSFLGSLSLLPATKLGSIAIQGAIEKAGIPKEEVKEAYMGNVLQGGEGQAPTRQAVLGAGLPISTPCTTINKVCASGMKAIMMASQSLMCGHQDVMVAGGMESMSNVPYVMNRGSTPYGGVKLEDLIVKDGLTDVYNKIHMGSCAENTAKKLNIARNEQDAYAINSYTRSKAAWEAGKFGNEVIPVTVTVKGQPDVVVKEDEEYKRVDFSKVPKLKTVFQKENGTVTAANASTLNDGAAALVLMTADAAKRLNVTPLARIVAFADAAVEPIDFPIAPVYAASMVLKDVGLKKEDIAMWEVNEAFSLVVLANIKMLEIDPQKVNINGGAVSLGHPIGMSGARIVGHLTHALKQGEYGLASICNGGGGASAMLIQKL
# [2] = target: mitochondrial acetyl-CoA acetyltransferase 1 (ACAT1), purified recombinant human, His-tagged (human) (UniProt P24752); test: cryo-EM structure
# [3] = target: mitochondrial acetyl-CoA acetyltransferase 1 (ACAT1), purified recombinant human, His-tagged (human) (UniProt P24752); test: negative-stain electron microscopy
# [4] = target: mitochondrial acetyl-CoA acetyltransferase 1 (ACAT1), purified recombinant human, His-tagged (human) (UniProt P24752); test: native gel or EMSA
# [5] = target: the molecule itself; test: native gel or EMSA
molecule,measurement,setting,value
"O=C(/C=C/c1ccc(O)c(O)c1)O[C@@H]1C[C@](O)(C(=O)O)C[C@@H](O)[C@H]1O [CGA, Chlorogenic acid]",Kd,[1],~2580 nM
"mitochondrial acetyl-CoA acetyltransferase 1 (ACAT1), purified recombinant human, His-tagged (from UniProt P24752 34-427) (enzyme)",stoichiometry N,[2],4
same,stoichiometry N,[3],4
same,stoichiometry N,[4],4
B1,stoichiometry N,[5],4
